For this data set, the target named is T1, pN-TALER IV-1-EE3 (synthetic).
T1 chain: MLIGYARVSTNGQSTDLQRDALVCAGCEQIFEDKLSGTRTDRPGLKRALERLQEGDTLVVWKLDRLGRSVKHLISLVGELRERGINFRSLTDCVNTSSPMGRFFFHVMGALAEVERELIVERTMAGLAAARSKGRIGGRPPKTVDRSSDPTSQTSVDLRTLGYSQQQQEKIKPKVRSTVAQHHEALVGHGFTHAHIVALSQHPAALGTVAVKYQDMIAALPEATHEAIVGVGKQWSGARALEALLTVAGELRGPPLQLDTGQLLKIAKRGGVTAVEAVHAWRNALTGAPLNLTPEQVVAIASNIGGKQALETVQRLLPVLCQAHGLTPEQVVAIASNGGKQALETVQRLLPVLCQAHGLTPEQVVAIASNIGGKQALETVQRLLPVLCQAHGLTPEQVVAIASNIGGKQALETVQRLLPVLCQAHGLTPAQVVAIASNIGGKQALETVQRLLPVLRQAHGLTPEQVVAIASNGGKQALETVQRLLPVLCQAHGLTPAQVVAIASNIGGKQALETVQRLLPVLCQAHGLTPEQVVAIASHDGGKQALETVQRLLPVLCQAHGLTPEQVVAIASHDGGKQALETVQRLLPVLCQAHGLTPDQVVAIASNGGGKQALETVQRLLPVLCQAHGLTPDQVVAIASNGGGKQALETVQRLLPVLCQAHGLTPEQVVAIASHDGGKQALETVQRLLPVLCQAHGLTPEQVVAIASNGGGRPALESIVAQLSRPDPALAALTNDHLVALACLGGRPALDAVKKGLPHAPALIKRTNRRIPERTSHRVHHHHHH
The experiment in a line: cell_activity; E. coli. Conditions: tags: 6-His.

B1: Gin18TALE+0 (dsDNA)
DNA 1: AGAAGGTATTTATACCAAAACCATGGTTTACATATAAATACCTTCT
DNA 2: AGAAGGTATTTATATGTAAACCATGGTTTTGGTATAAATACCTTCT
On to B1, for which the activity turned out to be 3 score.

The values above are taken from US20140193915, “COMPOSITIONS AND METHODS FOR CUSTOM SITE-SPECIFIC DNA RECOMBINASES” (Monsanto Technology, LLC, published 2014).
